Measured values published in PMC13262181 (Structure (London, England : 1993), 2025).
Ends that are not written are not given here. Ahx = NCCCCCC(=O)O

What was measured:
Cdc37 = molecular target: T1, Cdc37 (Homo sapiens, UniProt Q16543); experiment: 19F T2 filter NMR binding to Cdc37; details: 19F-peptides 20 μM, increasing Cdc37 (0.5, 1, 2, 4 μM)
T1 sequence (Q16543 1-378): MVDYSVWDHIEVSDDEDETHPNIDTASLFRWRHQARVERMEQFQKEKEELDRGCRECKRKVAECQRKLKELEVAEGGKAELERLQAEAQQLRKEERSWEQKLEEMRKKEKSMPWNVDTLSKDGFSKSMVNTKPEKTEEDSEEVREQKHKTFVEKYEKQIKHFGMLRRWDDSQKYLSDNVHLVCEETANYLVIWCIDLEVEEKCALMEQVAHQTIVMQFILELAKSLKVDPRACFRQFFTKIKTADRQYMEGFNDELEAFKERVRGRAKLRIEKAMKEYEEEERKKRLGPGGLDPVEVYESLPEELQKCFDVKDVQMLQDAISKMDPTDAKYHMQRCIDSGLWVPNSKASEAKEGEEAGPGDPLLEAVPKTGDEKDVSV

[1] = molecular target: LVEAVY tracer (synthetic construct); details: cited from earlier work
[2] = Solubility of synthesized peptides; assay type: physicochemical; details: when synthesized and experimentally tested
[3] = molecular target: T2, Hsc70 SBD construct (residues 395-509) (human, UniProt P11142 395-509); experiment: fluorescence polarisation
T2 sequence (P11142 395-509): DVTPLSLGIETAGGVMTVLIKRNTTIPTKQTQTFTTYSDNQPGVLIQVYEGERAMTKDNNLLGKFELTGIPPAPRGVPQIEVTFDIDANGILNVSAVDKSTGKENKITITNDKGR

[4] = molecular target: T2, Hsc70 SBD construct (residues 395-509); experiment: fluorescence polarisation; remark: listed apart in the source
[5] = molecular target: T2, Hsc70 SBD construct (residues 395-509); experiment: fluorescence polarisation; remark: listed apart in the source

Hsc70 SBD, sequence (P11142 394-509): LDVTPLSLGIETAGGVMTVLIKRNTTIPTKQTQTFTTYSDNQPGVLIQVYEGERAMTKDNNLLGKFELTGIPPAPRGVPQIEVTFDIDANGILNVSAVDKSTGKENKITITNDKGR

With PGQLMAISVGPTTLFV [Cdk4-2-scr] the “binding to Cdc37, 19F NMR titration” value (Cdc37) was “no interaction was observed”.

For Hsc70 SBD (from UniProt P11142), the Kd [1] is given as 100 nM.

For FATSRTDREGPN [Cdk4-1], the solubility [2] was “limited solubility”.

In the case of F-GVAEIGVGAYG [Cdk4-3], the solubility [2] is reported as “limited solubility”.

{FAM-Ahx}-LPISTGGFQMALTPVV-OH [FAM-Ahx-LPISTGGFQMALTPVV-OH] gave a Kd [3] of 29 nM.

Ac-TGGFQMAAT [Ac-… with the Leu residue mutated to alanine]: binds [4].

Ac-TGGFQAALT [Ac-… with the Met residue mutated to alanine]: binds [4].

Work on Ac-GGFQMALTPVV-OH [unlabeled Cdk4-4] yielded a Ki [5] greater than 100000 nM.
